# Results taken from the RNAGym collection of RNA variant scans (doi:10.1073/pnas.2313332121).
# Variants at the floor of the assay were thinned out.
# B1: TPR 5TU (parent)
# chain: GGAUCUUCUCGAUCUAACAAAAAAGACAAAUCUGCCACAAAGCUUGAGAGCAUCUUCGGAUGCAGAGGCGGCAGCCUUCGGUGGCGCGAUAGCGCCAACGUUCUCAACUAUGACACGCAAAACGCGUGCUCCGUUGAAUGGAGUUUAUCAUG
# Variants of: B1
# Experiment: polymerase ribozyme fitness, log enrichment relative to wild type (log ratio); higher = more active; in vitro selection for triplet polymerase activity
# Summary of the method: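 PCR was used to build mutant libraries for each subunit of a heterodimeric triplet polymerase ribozyme, which were then transcribed. A single in vitro selection round, in triplicate, used a frozen incubation at −7 °C and recovered extended constructs by gel excision, streptavidin beads and RT-PCR. Fitness is the logarithm of genotype enrichment relative to wild-type enrichment, averaged over replicates with inverse-variance weights. The logarithm is base 2, and after Illumina sequencing only genotypes with ≥10 input reads and ≥1 read per output were kept.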
row,Variant,polymerase ribozyme fitness (log ratio)
1,C75U G133U,-3.54
2,C76A G83U C99U A122U,≤ -4.2
3,C75U C85U U135G U146A,-3.82
4,C76U G88A A91C,≤ -4.2
5,C76U G128U,-3.27
6,A73G A137C U145G,-3.74
7,C75G C87G C93U C103G,≤ -4.2
8,A73G A115G G141A,-2.44
9,C76A G141C,-2.39
10,A73G A122C,0.468
11,U77A A91G G94A,≤ -4.2
12,A73G U144G,1.28
13,A73G U144C,0.137
14,A73U C96G A98U A120U A137G,-2.92
15,C76U C93G,-2.8
16,C76A U127A,-3.75
17,A73G G83C C95G A120C A122G,≤ -4.2
18,C76G U144A,≤ -4.2
19,C75U G84A U135A,-0.996
20,A73G G84A,-0.268
21,C76A C87U U139G U144A,-2.07

row,Variant,polymerase ribozyme fitness (log ratio)
1,A73U C75A A98U C114U C125A U135A,≤ -4.2
2,A73G G94A A97U A120U,-1.74
3,C75U C85G C103A A107U U146G A147U A150G,≤ -4.2
4,C76U G94U A115C C125U A147U,≤ -4.2
5,A73G C96G,-0.616
6,C75A,-3.85
7,C75G,-3.24
8,C75U,-0.0565
9,C76U C105U C116G,-1.03
10,A73U C116G,-2.81
11,A73U C93U A120G,-2.61
12,A73U A115G,-2.08
13,C75U A113U G124U U144C,≤ -4.2
14,C75U C96U,-0.743
15,G74A A106U A107U G133U,-3.93
16,C76A G86A A89U G133C U145G,≤ -4.2
17,G74U A107G,≤ -4.2
18,U77A A113U,≤ -4.2
19,C75U A113C,-3.87
20,A73G C93U,-1.28
21,A73G C93G,-2.73

row,Variant,polymerase ribozyme fitness (log ratio)
1,C76U G83C U134A A142U,≤ -4.2
2,G74C C93U G143U,≤ -4.2
3,C76U G83A,-0.0654
4,C75U G94A A142C,-2.13
5,G74U C87A C116A U151G,≤ -4.2
6,A73U G81A A122U,-0.858
7,A73G C85U,-0.115
8,C76A A91G C114U,-3.98
9,C75U G94C,0.488
10,C75U C79G,-4.07
11,C75G C76G G92C,≤ -4.2
12,C75U G141A,-0.767
13,C76A G84U A121G A122G U146A,-3.68
14,C75G G86U C95U C99U,≤ -4.2
15,C75A C79G C93A,-4.11
16,A73G C87U G92U A122U C131A,-4.1
17,A73U G81A C118G A120U U135A,-3.75
18,C76U U102G,-2.89
19,C75U A110C U146G,≤ -4.2
20,C76U A89C C118G,-1.8
21,C76G U77C G133U,≤ -4.2

row,Variant,polymerase ribozyme fitness (log ratio)
1,C75G U82G C87U C131G U134A,≤ -4.2
2,C76A G92U,-2.07
3,A73G G88A G124C,≤ -4.2
4,C76U C85G C125U U139G,≤ -4.2
5,C75A C116U,≤ -4.2
6,C76A G94C,-0.703
7,A73G G86U C105U A106U U144C,-3.89
8,C75G G81U C95A G152U,≤ -4.2
9,C76A C87U G140C,≤ -4.2
10,A73U A97U A115G,-3.45
11,A73G C85A U109G,-2.78
12,C76U G84U A113U A122U,-3.77
13,C76A A113C G141C U151A,≤ -4.2
14,C76U C79U C85A G92C C132G,≤ -4.2
15,C75U A97G C131U U135G,-3.18
16,C75A C129G U146C,≤ -4.2
17,G74U G83C G94C,≤ -4.2
18,C76A C96U,-0.773
19,G74A C103G,≤ -4.2
20,A73C C96A,-3.14
